This is an account of results in paper PMC4598629.

The target of test [1] is SOAR, purified wild-type protein (UniProt Q13586). Briefly: SEC; purified SOAR and SOAR-F394H, ~0.5 mg/ml, Superdex-200 16/60, 200 mM NaCl, 20 mM Mes-NaOH pH 6.5, 2.5 ml/min; calibrated with protein standards; monomers to dimer.
Test [2] has the same target. Briefly: cross-linking; purified proteins dialysed against PBS, 0.5 mg/ml, disuccinimidyl suberate 0, 0.1 and 1 mM, 30 min, room temperature; SDS-PAGE, Coomassie blue; monomers to dimer.
The target in test [3] is SOAR-F394H, purified protein (UniProt Q13586). Briefly: SEC; purified SOAR and SOAR-F394H, ~0.5 mg/ml, Superdex-200 16/60, 200 mM NaCl, 20 mM Mes-NaOH pH 6.5, 2.5 ml/min; calibrated with protein standards; monomers to dimer.
Test [4] shares this target. Briefly: cross-linking; purified proteins dialysed against PBS, 0.5 mg/ml, disuccinimidyl suberate 0, 0.1 and 1 mM, 30 min, room temperature; SDS-PAGE, Coomassie blue; monomers to dimer.

Regarding “SOAR, purified wild-type protein (from UniProt Q13586 344-442) (domain or fragment)”, the stoichiometry N in test [1] and in test [2] was 2 in each case.
Consider “SOAR-F394H, purified protein (from UniProt Q13586 344-442) (domain or fragment)”, for which the stoichiometry N in test [3] and in test [4] was 2 throughout.

Broadly, the stoichiometry N is the number of molecules, sites or subunits per partner or assembly.
